Test results from US20090318338.

Test system: RSK2
Sequence (chain, as listed by the source): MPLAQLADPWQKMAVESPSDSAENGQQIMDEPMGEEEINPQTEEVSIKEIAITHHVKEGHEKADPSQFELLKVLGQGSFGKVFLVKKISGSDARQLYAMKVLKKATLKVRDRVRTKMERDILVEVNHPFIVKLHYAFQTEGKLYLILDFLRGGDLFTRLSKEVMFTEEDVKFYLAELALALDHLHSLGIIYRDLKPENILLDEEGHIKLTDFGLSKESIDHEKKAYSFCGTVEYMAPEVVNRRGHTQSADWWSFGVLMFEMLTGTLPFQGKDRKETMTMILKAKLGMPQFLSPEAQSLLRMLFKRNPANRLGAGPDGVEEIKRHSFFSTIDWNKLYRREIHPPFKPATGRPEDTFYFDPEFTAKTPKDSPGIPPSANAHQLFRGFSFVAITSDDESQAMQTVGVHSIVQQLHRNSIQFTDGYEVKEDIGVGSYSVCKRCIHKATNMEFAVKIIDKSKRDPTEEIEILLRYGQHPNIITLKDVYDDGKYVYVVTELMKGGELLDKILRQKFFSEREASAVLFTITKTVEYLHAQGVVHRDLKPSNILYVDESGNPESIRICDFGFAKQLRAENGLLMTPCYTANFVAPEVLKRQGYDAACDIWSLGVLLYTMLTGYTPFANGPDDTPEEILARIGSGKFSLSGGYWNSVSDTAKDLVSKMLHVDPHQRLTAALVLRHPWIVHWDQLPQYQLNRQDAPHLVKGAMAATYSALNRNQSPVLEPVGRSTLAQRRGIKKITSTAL

Substance: WWP1
- RSK2 ubiquitination: WWP1 can promote low levels of RSK2 ubiquitination
